The test system of series [1] is HeLa Kyoto. The experiment in a line: solubility in G1/S (NP-40 vs SDS abundance) (log2 ratio); higher = more soluble. Conditions: cell cycle stage: G1/S.
Series [2] relates to HeLa Kyoto. The experiment in a line: solubility change mitosis vs G1/S (difference of NP-40 vs SDS log2 ratios) (log2 ratio difference); higher = more soluble in mitosis.
Series [3] relates to HeLa Kyoto. The experiment in a line: melting temperature (median over replicates), in situ; higher = more thermally stable.
For series [4], the system named is HeLa Kyoto. The experiment in a line: thermal stability score vs G1/S (z-score of summed log2 fold changes over temperatures); higher = more thermally stable than in G1/S.
Setting [5] is: cell cycle stage: early G1 (4.5 h after nocodazole release).
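For melting temperature (median over replicates), in situ in this document: HeLa Kyoto cells synchronized by double thymidine or nocodazole block, proteins quantified by TMT10plex mass spectrometry, three independent biological replicates.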
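For solubility change mitosis vs G1/S (difference of NP-40 vs SDS log2 ratios) in this document: synchronized HeLa Kyoto cells (double thymidine block for G1/S, nocodazole release for mitosis), protein amounts in NP-40 versus SDS lysates quantified by mass spectrometry, three biological replicates.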
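For solubility in G1/S (NP-40 vs SDS abundance) in this document: HeLa Kyoto cells arrested at G1/S by double thymidine block, proteins quantified by TMT10plex mass spectrometry in mild NP-40 versus SDS extracts, three biological replicates.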
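For thermal stability score vs G1/S (z-score of summed log2 fold changes over temperatures) in this document: synchronized HeLa Kyoto cells, proteins quantified by TMT10plex mass spectrometry, three biological replicates, mitosis taken 0.5 h after nocodazole release, G1/S directly after double thymidine block.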

MTR, sequence (chain, as listed by the source): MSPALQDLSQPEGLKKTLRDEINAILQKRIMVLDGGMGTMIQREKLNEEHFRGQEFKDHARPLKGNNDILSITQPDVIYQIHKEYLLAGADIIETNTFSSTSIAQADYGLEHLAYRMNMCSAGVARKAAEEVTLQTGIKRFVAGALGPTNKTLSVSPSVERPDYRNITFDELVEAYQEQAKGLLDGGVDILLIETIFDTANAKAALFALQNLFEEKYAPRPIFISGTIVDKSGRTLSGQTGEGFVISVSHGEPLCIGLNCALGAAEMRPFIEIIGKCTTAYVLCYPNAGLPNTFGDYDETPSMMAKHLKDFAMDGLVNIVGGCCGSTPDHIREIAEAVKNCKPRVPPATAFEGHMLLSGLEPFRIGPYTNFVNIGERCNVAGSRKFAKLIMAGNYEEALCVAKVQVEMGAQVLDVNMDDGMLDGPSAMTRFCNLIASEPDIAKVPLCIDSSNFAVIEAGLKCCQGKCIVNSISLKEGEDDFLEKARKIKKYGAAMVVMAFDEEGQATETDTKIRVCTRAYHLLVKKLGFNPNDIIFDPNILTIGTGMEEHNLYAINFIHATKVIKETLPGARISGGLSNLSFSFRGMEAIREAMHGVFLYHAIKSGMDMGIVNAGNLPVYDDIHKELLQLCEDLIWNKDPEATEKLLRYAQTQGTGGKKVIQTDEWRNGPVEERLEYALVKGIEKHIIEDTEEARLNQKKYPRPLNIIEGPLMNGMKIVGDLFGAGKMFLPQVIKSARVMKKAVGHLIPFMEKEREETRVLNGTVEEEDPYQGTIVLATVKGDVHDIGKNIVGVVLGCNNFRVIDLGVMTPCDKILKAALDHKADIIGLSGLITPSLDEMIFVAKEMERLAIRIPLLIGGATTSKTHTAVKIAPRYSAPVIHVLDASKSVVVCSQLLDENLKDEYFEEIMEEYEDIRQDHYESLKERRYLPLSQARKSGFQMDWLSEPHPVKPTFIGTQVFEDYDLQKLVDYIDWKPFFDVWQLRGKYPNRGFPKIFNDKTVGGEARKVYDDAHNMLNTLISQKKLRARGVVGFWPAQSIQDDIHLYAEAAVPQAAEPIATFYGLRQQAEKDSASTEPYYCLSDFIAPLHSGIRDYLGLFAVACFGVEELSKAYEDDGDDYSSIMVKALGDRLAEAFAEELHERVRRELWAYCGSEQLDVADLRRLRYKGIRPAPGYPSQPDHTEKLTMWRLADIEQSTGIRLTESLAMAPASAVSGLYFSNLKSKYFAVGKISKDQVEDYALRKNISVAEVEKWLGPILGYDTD

Take “MAAERQEALREFVAVTGAEEDRARFFLESAGWDLQIALASFYEDGGDEDIVTISQATPSSVSRGTAPSDNRVTSFRDLIHDQDEDEEEEEGQRFYAGGSERSGQQIVGPPRKKSPNELVDDLFKGAKEHGAVAVERVTKSPGETSKPRPFAGGGYRLGAAPEEESAYVAGEKRQHSSQDVHVVLKLWKSGFSLDNGELRSYQDPSNAQFLESIRRGEVPAELRRLAHGGQVNLDMEDHRDEDFVKPKGAFKAFTGEGQKLGSTAPQVLSTSSPAQQAENEAKASSSILIDESEPTTNIQIRLADGGRLVQKFNHSHRISDIRLFIVDARPAMAATSFILMTTFPNKELADESQTLKEANLLNAVIVQRLT [NSFL1C]”: in the series with HeLa Kyoto [1], the “solubility in G1/S (log2)” value was 0.384. In addition, the “solubility change mitosis (log2)” value in the series on HeLa Kyoto [2] was found to be 0.0342. The melting temperature in the series with HeLa Kyoto [3] (cell cycle stage: G1/S) was determined as 51.7 °C; in the series with HeLa Kyoto [3] (cell cycle stage: mitosis) it was 52 °C. Further, the results for the thermal stability score with HeLa Kyoto [4] (setting [5]) and in the series on HeLa Kyoto [4] (cell cycle stage: mitosis) were -1.97 and 1.13, respectively.
On to “MIRNGRGAAGGAEQPGPGGRRAVRVWCDGCYDMVHYGHSNQLRQARAMGDYLIVGVHTDEEIAKHKGPPVFTQEERYKMVQAIKWVDEVVPAAPYVTTLETLDKYNCDFCVHGNDITLTVDGRDTYEEVKQAGRYRECKRTQGVSTTDLVGRMLLVTKAHHSSQEMSSEYREYADSFGKCPGGRNPWTGVSQFLQTSQKIIQFASGKEPQPGETVIYVAGAFDLFHIGHVDFLEKVHRLAERPYIIAGLHFDQEVNHYKGKNYPIMNLHERTLSVLACRYVSEVVIGAPYAVTAELLSHFKVDLVCHGKTEIIPDRDGSDPYQEPKRRGIFRQIDSGSNLTTDLIVQRIITNRLEYEARNQKKEAKELAFLEAARQQAAQPLGERDGDF [PCYT2]”, for which the “solubility in G1/S (log2)” value in the series with HeLa Kyoto [1] turned out to be 0.000861. For the same substance, in the series on HeLa Kyoto [2], the “solubility change mitosis (log2)” value is -0.199. Besides, the values for the melting temperature in the series with HeLa Kyoto [3] (cell cycle stage: G1/S) and in the series on HeLa Kyoto [3] (cell cycle stage: mitosis) were 54.1 °C and 54.9 °C, respectively. Also, the results for the thermal stability score in the series on HeLa Kyoto [4] (setting [5]) and in the series with HeLa Kyoto [4] (cell cycle stage: mitosis) were 0.197 and 0.0948, respectively.
On to DIDO1, for which, in the series with HeLa Kyoto [1], the “solubility in G1/S (log2)” value is -0.458. For the same substance, in the series on HeLa Kyoto [2], the “solubility change mitosis (log2)” value is 0.231. The melting temperature in the series with HeLa Kyoto [3] (cell cycle stage: G1/S) was 49.1 °C; in the series on HeLa Kyoto [3] (cell cycle stage: mitosis), 49.8 °C. Further, the thermal stability score with HeLa Kyoto [4] (setting [5]) was found to be 0.743; in the series with HeLa Kyoto [4] (cell cycle stage: mitosis), 4.5.
On to “MAAPKGSLWVRTQLGLPPLLLLTMALAGGSGTASAEAFDSVLGDTASCHRACQLTYPLHTYPKEEELYACQRGCRLFSICQFVDDGIDLNRTKLECESACTEAYSQSDEQYACHLGCQNQLPFAELRQEQLMSLMPKMHLLFPLTLVRSFWSDMMDSAQSFITSSWTFYLQADDGKIVIFQSKPEIQYAPHLEQEPTNLRESSLSKMSYLQMRNSQAHRNFLEDGESDGFLRCLSLNSGWILTTTLVLSVMVLLWICCATVATAVEQYVPSEKLSIYGDLEFMNEQKLNRYPASSLVVVRSKTEDHEEAGPLPTKVNLAHSEI [TMEM59]”, for which the “solubility in G1/S (log2)” value with HeLa Kyoto [1] came out at 0.0662. Moreover, the “solubility change mitosis (log2)” value in the series with HeLa Kyoto [2] was found to be 0.0194. Also, the melting temperature with HeLa Kyoto [3] (cell cycle stage: G1/S) was determined as 54.8 °C; with HeLa Kyoto [3] (cell cycle stage: mitosis), 53.1 °C. In addition, the results for the thermal stability score in the series with HeLa Kyoto [4] (setting [5]) and with HeLa Kyoto [4] (cell cycle stage: mitosis) were 0.0515 and -0.215, respectively.
For the substance MTR, in the series with HeLa Kyoto [1], the “solubility in G1/S (log2)” value stood at 0.00491. Moreover, the “solubility change mitosis (log2)” value in the series on HeLa Kyoto [2] was -0.144. Further, the melting temperature in the series on HeLa Kyoto [3] (cell cycle stage: G1/S) came out at 48.6 °C; with HeLa Kyoto [3] (cell cycle stage: mitosis), 49.9 °C. The thermal stability score was -0.177 with HeLa Kyoto [4] (setting [5]) and 0.37 in the series on HeLa Kyoto [4] (cell cycle stage: mitosis).
“MAAMAPGGSGSGGGVNPFLSDSDEDDDEVAATEERRAVLRLGAGSGLDPGSAGSLSPQDPVALGSSARPGLPGEASAAAVALGGTGETPARLSIDAIAAQLLRDQYLLTALELHTELLESGRELPRLRDYFSNPGNFERQSGTPPGMGAPGVPGAAGVGGAGGREPSTASGGGQLNRAGSISTLDSLDFARYSDDGNRETDEKVAVLEFELRKAKETIQALRANLTKAAEHEVPLQERKNYKSSPEIQEPIKPLEKRALNFLVNEFLLKNNYKLTSITFSDENDDQDFELWDDVGLNIPKPPDLLQLYRDFGNHQVTGKDLVDVASGVEEDELEALTPIISNLPPTLETPQPAENSMLVQKLEDKISLLNSEKWSLMEQIRRLKSEMDFLKNEHFAIPAVCDSVQPPLDQLPHKDSEDSGQHPDVNSSDKGKNTDIHLSISDEADSTIPKENSPNSFPRREREGMPPSSLSSKKTVHFDKPNRKLSPAFHQALLSFCRMSADSRLGYEVSRIADSEKSVMLMLGRCLPHIVPNVLLAKREELIPLILCTACLHPEPKERDQLLHILFNLIKRPDDEQRQMILTGCVAFARHVGPTRVEAELLPQCWEQINHKYPERRLLVAESCGALAPYLPKEIRSSLVLSMLQQMLMEDKADLVREAVIKSLGIIMGYIDDPDKYHQGFELLLSALGDPSERVVSATHQVFLPAYAAWTTELGNLQSHLILTLLNKIEKLLREGEHGLDEHKLHMYLSALQSLIPSLFALVLQNAPFSSKAKLHGEVPQIEVTRFPRPMSPLQDVSTIIGSREQLAVLLQLYDYQLEQEGTTGWESLLWVVNQLLPQLIEIVGKINVTSTACVHEFSRFFWRLCRTFGKIFTNTKVKPQFQEILRLSEENIDSSAGNGVLTKATVPIYATGVLTCYIQEEDRKLLVGFLEDVMTLLSLSHAPLDSLKASFVELGANPAYHELLLTVLWYGVVHTSALVRCTAARMFELTLRGMSEALVDKRVAPALVTLSSDPEFSVRIATIPAFGTIMETVIQRELLERVKMQLASFLEDPQYQDQHSLHTEIIKTFGRVGPNAEPRFRDEFVIPHLHKLALVNNLQIVDSKRLDIATHLFEAYSALSCCFISEDLMVNHFLPGLRCLRTDMEHLSPEHEVILSSMIKECEQKVENKTVQEPQGSMSIAASLVSEDTKTKFLNKMGQLTTSGAMLANVFQRKK [KIAA1468]”: the “solubility in G1/S (log2)” value in the series on HeLa Kyoto [1] is -0.0233. Also, the “solubility change mitosis (log2)” value with HeLa Kyoto [2] was -0.171. In addition, the melting temperature worked out at 50.8 °C with HeLa Kyoto [3] (cell cycle stage: G1/S) and 51.1 °C in the series with HeLa Kyoto [3] (cell cycle stage: mitosis). Further, the thermal stability score in the series with HeLa Kyoto [4] (setting [5]) was -0.253; in the series with HeLa Kyoto [4] (cell cycle stage: mitosis), -0.932.
